Laboratory results as given in the supplement of paper PMC9112550, “Optimization of the antimicrobial peptide Bac7 by deep mutational scanning” (BMC Biology, 2022).

Test system: Escherichia coli TOP10
Test: shrunken log2 fold change of peptide-encoding DNA abundance (4.5 h post-induction vs induction); higher = less antimicrobial activity (less host growth inhibition)
Conditions: time post-induction: 4.5 h; library: site-saturation at positions 5, 18, 19, 20
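Further: peptides expressed intracellularly from a pBAD plasmid library in pooled LB shake-flask culture, induced with 0.3% L-arabinose, DNA abundance read by NGS, three biological replicates, DESeq2 with apeglm shrinkage.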

| Sequence | shrunken log2 fold change |
| --- | --- |
| RRIRWRPPRLPRPRPRPEREPRP | 0.295 |
| RRIRWRPPRLPRPRPRPIFKPRP | 0.0632 |
| RRIRWRPPRLPRPRPRPAVHPRP | 0.631 |
| RRIRARPPRLPRPRPRPDSVPRP | 0.118 |
| RRIRGRPPRLPRPRPRPPNCPRP | 0.266 |
| RRIRVRPPRLPRPRPRPVHDPRP | -0.745 |
| RRIRNRPPRLPRPRPRPFNCPRP | -0.112 |
| RRIRQRPPRLPRPRPRPVEKPRP | 0.0119 |
| RRIRPRPPRLPRPRPRPIGIPRP | 0.208 |
| RRIRDRPPRLPRPRPRPYFMPRP | -0.735 |
| RRIRHRPPRLPRPRPRPQIIPRP | -0.634 |
| RRIRERPPRLPRPRPRPAQCPRP | -0.0401 |
| RRIRGRPPRLPRPRPRPGPEPRP | 0.954 |
| RRIRRRPPRLPRPRPRPLPNPRP | -0.0597 |
| RRIRDRPPRLPRPRPRPWCTPRP | 0.107 |
| RRIRCRPPRLPRPRPRPGKAPRP | 0.00811 |
| RRIRWRPPRLPRPRPRPGPFPRP | 0.125 |
| RRIRGRPPRLPRPRPRPLVMPRP | 0.263 |
| RRIRKRPPRLPRPRPRPGKRPRP | 0.285 |
| RRIRDRPPRLPRPRPRPIWNPRP | -0.0889 |
| RRIRIRPPRLPRPRPRPAWVPRP | 0.0748 |
| RRIRYRPPRLPRPRPRPVLMPRP | -0.83 |
| RRIRIRPPRLPRPRPRPNMDPRP | -0.874 |
| RRIRGRPPRLPRPRPRPRYKPRP | 0.247 |
| RRIRVRPPRLPRPRPRPRVYPRP | -0.587 |

| Sequence | shrunken log2 fold change |
| --- | --- |
| RRIRTRPPRLPRPRPRPEGEPRP | -0.0398 |
| RRIRYRPPRLPRPRPRPVAFPRP | -0.717 |
| RRIRMRPPRLPRPRPRPGVGPRP | 0.841 |
| RRIRWRPPRLPRPRPRPISGPRP | -0.12 |
| RRIRSRPPRLPRPRPRPMPDPRP | 0.235 |
| RRIRMRPPRLPRPRPRPAWRPRP | 0.533 |
| RRIRWRPPRLPRPRPRPLSGPRP | 0.34 |
| RRIRIRPPRLPRPRPRPGRWPRP | 0.473 |
| RRIRSRPPRLPRPRPRPSWKPRP | -0.0985 |
| RRIRPRPPRLPRPRPRPPFDPRP | 0.228 |
| RRIRARPPRLPRPRPRPWQPPRP | 0.0351 |
| RRIRNRPPRLPRPRPRPACDPRP | -0.00482 |
| RRIRHRPPRLPRPRPRPFYIPRP | -1.15 |
| RRIRIRPPRLPRPRPRPESRPRP | 0.0553 |
| RRIRARPPRLPRPRPRPRRGPRP | 0.759 |
| RRIRVRPPRLPRPRPRPAWAPRP | 0.255 |
| RRIRARPPRLPRPRPRPDQAPRP | 0.026 |
| RRIRDRPPRLPRPRPRPYMHPRP | -0.275 |
| RRIRPRPPRLPRPRPRPRNGPRP | -0.0237 |
| RRIRKRPPRLPRPRPRPFDVPRP | 0.0305 |
| RRIRHRPPRLPRPRPRPDYCPRP | -0.01 |
| RRIRTRPPRLPRPRPRPIGRPRP | -0.159 |
| RRIRRRPPRLPRPRPRPHVMPRP | 1.55 |
| RRIRMRPPRLPRPRPRPGWNPRP | 0.226 |
| RRIRVRPPRLPRPRPRPQHMPRP | -0.23 |

| Sequence | shrunken log2 fold change |
| --- | --- |
| RRIRFRPPRLPRPRPRPMICPRP | -0.303 |
| RRIRVRPPRLPRPRPRPQKIPRP | 0.0538 |
| RRIRLRPPRLPRPRPRPDGGPRP | -0.000524 |
| RRIRPRPPRLPRPRPRPFSGPRP | -0.478 |
| RRIRPRPPRLPRPRPRPQNHPRP | 0.181 |
| RRIRFRPPRLPRPRPRPYEAPRP | -0.493 |
| RRIRWRPPRLPRPRPRPYPYPRP | 0.0754 |
| RRIRVRPPRLPRPRPRPNRWPRP | -0.0283 |
| RRIRCRPPRLPRPRPRPLKCPRP | -0.228 |
| RRIRVRPPRLPRPRPRPATMPRP | -0.259 |
| RRIRQRPPRLPRPRPRPSVWPRP | 0.128 |
| RRIRNRPPRLPRPRPRPEFQPRP | -0.00325 |
| RRIRLRPPRLPRPRPRPRSKPRP | -0.111 |
| RRIRVRPPRLPRPRPRPFSAPRP | -0.132 |
| RRIRQRPPRLPRPRPRPAKNPRP | -0.0935 |
| RRIRTRPPRLPRPRPRPWGAPRP | 0.211 |
| RRIRTRPPRLPRPRPRPHKGPRP | 0.0731 |
| RRIRVRPPRLPRPRPRPQAEPRP | 0.352 |
| RRIRSRPPRLPRPRPRPITDPRP | -0.0789 |
| RRIRIRPPRLPRPRPRPMSLPRP | -0.0475 |
| RRIRCRPPRLPRPRPRPKHCPRP | -0.166 |
| RRIRNRPPRLPRPRPRPDTPPRP | 0.0123 |
| RRIRWRPPRLPRPRPRPAFFPRP | 0.111 |
| RRIRFRPPRLPRPRPRPWHSPRP | -0.018 |
| RRIRQRPPRLPRPRPRPDVEPRP | -0.0335 |

| Sequence | shrunken log2 fold change |
| --- | --- |
| RRIRGRPPRLPRPRPRPPTEPRP | 1.04 |
| RRIRSRPPRLPRPRPRPQNWPRP | 0.269 |
| RRIRNRPPRLPRPRPRPGMYPRP | -0.242 |
| RRIRCRPPRLPRPRPRPRTMPRP | -0.0155 |
| RRIRYRPPRLPRPRPRPMSMPRP | -0.304 |
| RRIRERPPRLPRPRPRPRLFPRP | 0.00738 |
| RRIRNRPPRLPRPRPRPRLPPRP | 0.245 |
| RRIRPRPPRLPRPRPRPDNMPRP | -0.337 |
| RRIRVRPPRLPRPRPRPVCNPRP | -0.0396 |
| RRIRIRPPRLPRPRPRPMGKPRP | -0.0139 |
| RRIRQRPPRLPRPRPRPWIQPRP | -0.251 |
| RRIRTRPPRLPRPRPRPSAMPRP | -0.0978 |
| RRIRGRPPRLPRPRPRPWNHPRP | -0.052 |
| RRIRHRPPRLPRPRPRPCGSPRP | -0.153 |
| RRIRKRPPRLPRPRPRPRSCPRP | 0.239 |
| RRIRLRPPRLPRPRPRPEWSPRP | -0.178 |
| RRIRFRPPRLPRPRPRPPGAPRP | 0.847 |
| RRIRNRPPRLPRPRPRPLGYPRP | -0.165 |
| RRIRDRPPRLPRPRPRPKIQPRP | 0.0161 |
| RRIRKRPPRLPRPRPRPHHYPRP | -0.737 |
| RRIRARPPRLPRPRPRPKQLPRP | 0.155 |
| RRIRRRPPRLPRPRPRPPTIPRP | 0.324 |
| RRIRERPPRLPRPRPRPCHEPRP | -0.0789 |
| RRIRCRPPRLPRPRPRPSQAPRP | -0.0139 |
| RRIRGRPPRLPRPRPRPAEPPRP | 0.176 |

| Sequence | shrunken log2 fold change |
| --- | --- |
| RRIRLRPPRLPRPRPRPGHQPRP | 0.122 |
| RRIRRRPPRLPRPRPRPIGNPRP | 0.0912 |
| RRIRKRPPRLPRPRPRPYRTPRP | -0.224 |
| RRIRHRPPRLPRPRPRPPRLPRP | 0.0241 |
| RRIRLRPPRLPRPRPRPDDDPRP | 0.129 |
| RRIRCRPPRLPRPRPRPMPLPRP | -0.643 |
| RRIRYRPPRLPRPRPRPMIYPRP | -0.0142 |
| RRIRWRPPRLPRPRPRPYMMPRP | -0.842 |
| RRIRNRPPRLPRPRPRPEMKPRP | -0.188 |
| RRIRKRPPRLPRPRPRPSTVPRP | -0.159 |
| RRIRKRPPRLPRPRPRPRTIPRP | 0.262 |
| RRIRRRPPRLPRPRPRPKGCPRP | 0.0288 |
| RRIRYRPPRLPRPRPRPHWHPRP | -0.912 |
| RRIRNRPPRLPRPRPRPGMIPRP | 0.00966 |
| RRIRARPPRLPRPRPRPHRYPRP | -0.147 |
| RRIRNRPPRLPRPRPRPMFLPRP | -0.241 |
| RRIRRRPPRLPRPRPRPSPTPRP | 0.598 |
| RRIRQRPPRLPRPRPRPAVDPRP | 0.963 |
| RRIRKRPPRLPRPRPRPESCPRP | 0.183 |
| RRIRCRPPRLPRPRPRPVRFPRP | 0.262 |
| RRIRSRPPRLPRPRPRPHMWPRP | 0.202 |
| RRIRSRPPRLPRPRPRPHGFPRP | -0.0309 |
| RRIRYRPPRLPRPRPRPDDNPRP | 0.0238 |
| RRIRIRPPRLPRPRPRPSPIPRP | -0.574 |
| RRIRVRPPRLPRPRPRPNARPRP | 0.102 |

| Sequence | shrunken log2 fold change |
| --- | --- |
| RRIRVRPPRLPRPRPRPKVVPRP | 0.174 |
| RRIRDRPPRLPRPRPRPVFIPRP | -0.476 |
| RRIRSRPPRLPRPRPRPAVYPRP | -0.585 |
| RRIRIRPPRLPRPRPRPVENPRP | -0.0976 |
| RRIRERPPRLPRPRPRPQMSPRP | -0.114 |
| RRIRTRPPRLPRPRPRPHWDPRP | -0.245 |
| RRIRLRPPRLPRPRPRPFKHPRP | -0.156 |
| RRIRMRPPRLPRPRPRPEDHPRP | 1.29 |
| RRIRYRPPRLPRPRPRPMCTPRP | 0.00658 |
| RRIRKRPPRLPRPRPRPPKTPRP | 0.0147 |
| RRIRARPPRLPRPRPRPMCMPRP | 0.272 |
| RRIRPRPPRLPRPRPRPDTVPRP | -0.207 |
| RRIRTRPPRLPRPRPRPADYPRP | -0.226 |
| RRIRFRPPRLPRPRPRPIIMPRP | -0.799 |
| RRIRDRPPRLPRPRPRPHHDPRP | -0.336 |
| RRIRWRPPRLPRPRPRPVVIPRP | -0.101 |
| RRIRGRPPRLPRPRPRPAHWPRP | 0.378 |
| RRIRVRPPRLPRPRPRPHFAPRP | 0.0941 |
| RRIRGRPPRLPRPRPRPSRCPRP | -0.0851 |
| RRIRVRPPRLPRPRPRPQNMPRP | -0.465 |
| RRIRSRPPRLPRPRPRPCHIPRP | -0.872 |
| RRIRIRPPRLPRPRPRPGWWPRP | 0.405 |
| RRIRNRPPRLPRPRPRPCWCPRP | -0.147 |
| RRIRYRPPRLPRPRPRPTCLPRP | -0.821 |
| RRIRSRPPRLPRPRPRPQINPRP | -0.46 |
